Experimental data from the MegaScale stability set (Tsuboyama et al. 2023).

B1: EEHEE_rd4_0003 (parent)
chain: KKVTINGVEIKFNNPEEAVKFALELAKRLNLRIEFHGDQIKIE

Variants of: B1
Experiment: folding stability dG (cDNA display proteolysis); higher = more stable
Details: PBS, room temperature

Variant	folding stability dG [kcal/mol]
KKVTINGVQIKFNNPEEAVKFALELAKRLNLRIEFHGDQIKIE [E9Q]	2.46
KKVTINGVHIKFNNPEEAVKFALELAKRLNLRIEFHGDQIKIE [E9H]	2.46
KKVTINGVFIKFNNPEEAVKFALELAKRLNLRIEFHGDQIKIE [E9F]	2.53
KKVTINGVRIKFNNPEEAVKFALELAKRLNLRIEFHGDQIKIE [E9R]	2.36
KKVTINGVKIKFNNPEEAVKFALELAKRLNLRIEFHGDQIKIE [E9K]	2.08
KKVTINGVYIKFNNPEEAVKFALELAKRLNLRIEFHGDQIKIE [E9Y]	2.58
KKVTINGVNIKFNNPEEAVKFALELAKRLNLRIEFHGDQIKIE [E9N]	2.19
KKVTINGVVIKFNNPEEAVKFALELAKRLNLRIEFHGDQIKIE [E9V]	2.94
KKVTINGVLIKFNNPEEAVKFALELAKRLNLRIEFHGDQIKIE [E9L]	2.78
KKVTINGVSIKFNNPEEAVKFALELAKRLNLRIEFHGDQIKIE [E9S]	2.58
KKVTINGVPIKFNNPEEAVKFALELAKRLNLRIEFHGDQIKIE [E9P]	2.3
KKVTINGVTIKFNNPEEAVKFALELAKRLNLRIEFHGDQIKIE [E9T]	2.98
KKVTINGVAIKFNNPEEAVKFALELAKRLNLRIEFHGDQIKIE [E9A]	2.4
KKVTINGVMIKFNNPEEAVKFALELAKRLNLRIEFHGDQIKIE [E9M]	2.62
KKVTINGVIIKFNNPEEAVKFALELAKRLNLRIEFHGDQIKIE [E9I]	2.85
KKVTINGVDIKFNNPEEAVKFALELAKRLNLRIEFHGDQIKIE [E9D]	2.3
KKVTINGVWIKFNNPEEAVKFALELAKRLNLRIEFHGDQIKIE [E9W]	2.73
KKVTINGVGIKFNNPEEAVKFALELAKRLNLRIEFHGDQIKIE [E9G]	2.12
KKVTINGVCIKFNNPEEAVKFALELAKRLNLRIEFHGDQIKIE [E9C]	3.54
KKVTINGMEIKFNNPEEAVKFALELAKRLNLRIEFHGDQIKIE [V8M]	2.51

Variant	folding stability dG [kcal/mol]
KKVTINGEEIKFNNPEEAVKFALELAKRLNLRIEFHGDQIKIE [V8E]	1.99
KKVTINGAEIKFNNPEEAVKFALELAKRLNLRIEFHGDQIKIE [V8A]	2.03
KKVTINGIEIKFNNPEEAVKFALELAKRLNLRIEFHGDQIKIE [V8I]	2.74
KKVTINGGEIKFNNPEEAVKFALELAKRLNLRIEFHGDQIKIE [V8G]	1.78
KKVTINGYEIKFNNPEEAVKFALELAKRLNLRIEFHGDQIKIE [V8Y]	2.82
KKVTINGSEIKFNNPEEAVKFALELAKRLNLRIEFHGDQIKIE [V8S]	1.97
KKVTINGLEIKFNNPEEAVKFALELAKRLNLRIEFHGDQIKIE [V8L]	2.51
KKVTINGPEIKFNNPEEAVKFALELAKRLNLRIEFHGDQIKIE [V8P]	1.6
KKVTINGWEIKFNNPEEAVKFALELAKRLNLRIEFHGDQIKIE [V8W]	2.75
KKVTINGDEIKFNNPEEAVKFALELAKRLNLRIEFHGDQIKIE [V8D]	1.65
KKVTINGTEIKFNNPEEAVKFALELAKRLNLRIEFHGDQIKIE [V8T]	2.24
KKVTINGCEIKFNNPEEAVKFALELAKRLNLRIEFHGDQIKIE [V8C]	3.55
KKVTINGKEIKFNNPEEAVKFALELAKRLNLRIEFHGDQIKIE [V8K]	2.4
KKVTINGFEIKFNNPEEAVKFALELAKRLNLRIEFHGDQIKIE [V8F]	2.71
KKVTINGHEIKFNNPEEAVKFALELAKRLNLRIEFHGDQIKIE [V8H]	2.53
KKVTINGREIKFNNPEEAVKFALELAKRLNLRIEFHGDQIKIE [V8R]	2.56
KKVTINGNEIKFNNPEEAVKFALELAKRLNLRIEFHGDQIKIE [V8N]	2
KKVTINGQEIKFNNPEEAVKFALELAKRLNLRIEFHGDQIKIE [V8Q]	2.25
KKVTINGVEIDFNNPEEAVKFALELAKRLNLRIEFHGDQIKIE [K11D]	2.3
KKVTINGVEICFNNPEEAVKFALELAKRLNLRIEFHGDQIKIE [K11C]	3.94

Variant	folding stability dG [kcal/mol]
KKVTINGVEIIFNNPEEAVKFALELAKRLNLRIEFHGDQIKIE [K11I]	3
KKVTINGVEIEFNNPEEAVKFALELAKRLNLRIEFHGDQIKIE [K11E]	2.77
KKVTINGVEIMFNNPEEAVKFALELAKRLNLRIEFHGDQIKIE [K11M]	2.99
KKVTINGVEIVFNNPEEAVKFALELAKRLNLRIEFHGDQIKIE [K11V]	2.96
KKVTINGVEIPFNNPEEAVKFALELAKRLNLRIEFHGDQIKIE [K11P]	2.22
KKVTINGVEIHFNNPEEAVKFALELAKRLNLRIEFHGDQIKIE [K11H]	3.03
KKVTINGVEIQFNNPEEAVKFALELAKRLNLRIEFHGDQIKIE [K11Q]	2.72
KKVTINGVEINFNNPEEAVKFALELAKRLNLRIEFHGDQIKIE [K11N]	2.83
KKVTINGVEIGFNNPEEAVKFALELAKRLNLRIEFHGDQIKIE [K11G]	2.28
KKVTINGVEISFNNPEEAVKFALELAKRLNLRIEFHGDQIKIE [K11S]	2.72
KKVTINGVEIRFNNPEEAVKFALELAKRLNLRIEFHGDQIKIE [K11R]	2.78
KKVTINGVEITFNNPEEAVKFALELAKRLNLRIEFHGDQIKIE [K11T]	2.85
KKVTINGVEIAFNNPEEAVKFALELAKRLNLRIEFHGDQIKIE [K11A]	2.6
KKVTINGVEIFFNNPEEAVKFALELAKRLNLRIEFHGDQIKIE [K11F]	3.26
KKVTINGVEILFNNPEEAVKFALELAKRLNLRIEFHGDQIKIE [K11L]	3.02
KKVTINGVEIWFNNPEEAVKFALELAKRLNLRIEFHGDQIKIE [K11W]	3.53
KKVTINGVEIYFNNPEEAVKFALELAKRLNLRIEFHGDQIKIE [K11Y]	3.32
KKVTINGVEIKSNNPEEAVKFALELAKRLNLRIEFHGDQIKIE [F12S]	1.57
KKVTINGVEIKQNNPEEAVKFALELAKRLNLRIEFHGDQIKIE [F12Q]	1.13
